# PMC6429369, “Characterization of Stackebrandtia nassauensis GH 20 Beta-Hexosaminidase, a Versatile Biocatalyst for Chitobiose Degradation” (International Journal of Molecular Sciences, 2019)
# Assays:
# purified protein [1] = substrate: CC(=O)N[C@H]1[C@H](Oc2ccc([N+](=O)[O-])cc2)O[C@H](CO)[C@@H](O)[C@@H]1O; assay: purified protein; assay type: biochemical, Stackebrandtia nassauensis; settings: 50 mM phosphate-citric acid buffer pH 6.0, 37 °C, substrate 0.01-10 mM
# purified protein [2] = substrate: CC(=O)N[C@H]1[C@H](Oc2ccc([N+](=O)[O-])cc2)O[C@H](CO)[C@H](O)[C@@H]1O; assay: purified protein; assay type: biochemical, Stackebrandtia nassauensis; settings: 50 mM phosphate-citric acid buffer pH 6.0, 37 °C, substrate 0.01-10 mM
protein,measurement,setting,value
"SnHex (Stackebrandtia nassauensis GH20 beta-N-acetylhexosaminidase) (Stackebrandtia nassauensis DSM 44728) (protein, full ORF, 1578 bp, 526 residues, about 58 kDa; pET-30a in E. coli BL21(DE3) lacZ-; Ni-NTA and anion exchange; N-terminal His/thrombin/S-tag/enterokinase by cloning (text elsewhere says C-terminal His6), tags kept; primers translate to N-term VADPSH (after ATG), C-term GFSSL-stop) VADPSHAKAATPSTIPALGEWTAASGTYTYSESSRLVVDPDHADELTDEAQTAAADLAALTGTEPEVVTGEPETGDVSLALGGGEPLGAEGYSLDVGDTFAITANADAGAFYGTRTLLQLVKQDKQIPAGTATDVPKKPERGLMVDVGRKYMSVEWLKKHIKDLSYAKLNYFHLHLSDTFGFRLESETHPEVTSEDHYTKAEIRELVDLAAKYHVTLVPEIDVPGHVNAMLAQHPELQLEDQSGNKDPYFLDLSNPDAYTLVEDLIKEYLPLFPGPYWHIGADEYVGDYGKYPQLEAYAKEHYGPDAVGKDAYYGFINWANEIVRDGGKTTRMWNDGIKEGDGTIAPEANIVVDYWSTHGIDPQKLLDRGHTVMNASWTPTYYVLGGTDIDRRWLYEDWNPDLFEKTLTIDDPKRNLGSKIHVWCDHPDAQTEDQITEGIRLPLRGLAQQTWGSPKLVEGYDDFVAIDDAIGRAPGFSSL",Km,purified protein [1],2470 ± 50 µM
same,Vmax,purified protein [1],57 µM/min/mg
same,kcat,purified protein [1],0.917 ± 0.0615 s⁻¹
same,kcat/Km,purified protein [1],372 ± 33.3 M⁻¹ s⁻¹
same,Km,purified protein [2],3290 ± 320 µM
same,Vmax,purified protein [2],44 µM/min/mg
same,kcat,purified protein [2],0.712 ± 0.0477 s⁻¹
same,kcat/Km,purified protein [2],217 ± 38.3 M⁻¹ s⁻¹
